B1: CD33 BRIDGE variant B1 (Fab, V domains shown)
VH: QVQLVQSGAEVKKPGSSVKVSCKASGYTFTDYNMHWVRQAPGQGLEWIGYIYPYNGGTGYNQKFKSKATITADESTNTAYMELSSLRSEDTAVYYCARGRPAMDYWGQGTLVTVSS
VL: DIQMTQSPSSLSASVGDRVTITCRASESVDNYGISFMNWFQQKPGKAPKLLIYAASNQGSGVPSRFSGSGSGTDFTLTISSLQPDDFATYYCQQSKEVPWTFGQGTKVEIKR
notes: Lintuzumab-based Fab bridging molecule
B2: CD33 BRIDGE variant B2 (Fab, V domains shown)
VH: B1 VH
VL: B1 VL
notes: as for B1
B3: CD33 BRIDGE variant B7 (Fab, V domains shown)
VH: B1 VH
VL: B1 VL
notes: as for B1
B4: CD33 BRIDGE variant B3 (Fab, V domains shown)
VH: B1 VH
VL: B1 VL
notes: as for B1
B5: CD33 BRIDGE variant B4 (Fab)
light: GHNYTTRNILPGLNITSTFHKTSGSGKEPKSSDKTHTDIQMTQSPSSLSASVGDRVTITCRASESVDNYGISFMNWFQQKPGKAPKLLIYAASNQGSGVPSRFSGSGSGTDFTLTISSLQPDDFATYYCQQSKEVPWTFGQGTKVEIKRTVAAPSVFIFPPSDEQLKSGTASVVCLLNNFYPREAKVQWKVDNALQSGNSQESVTEQDSKDSTYSLSSTLTLSKADYEKHKVYACEVTHQGLSSPVTKSFNRGECHHHHHH
heavy: QVQLVQSGAEVKKPGSSVKVSCKASGYTFTDYNMHWVRQAPGQGLEWIGYIYPYNGGTGYNQKFKSKATITADESTNTAYMELSSLRSEDTAVYYCARGRPAMDYWGQGTLVTVSSASTKGPSVFPLAPSSKSTSGGTAALGCLVKDYFPEPVTVSWNSGALTSGVHTFPAVLQSSGLYSLSSVVTVPSSSLGTQTYICNVNHKPSNTKVDKKVEPKSCHHHHHH
notes: as for B1
B6: CD33 BRIDGE variant B5 (Fab)
light: GHNYTTRNILPGLNITSTFHKTSGSGKGSEPKSSDKTHTDIQMTQSPSSLSASVGDRVTITCRASESVDNYGISFMNWFQQKPGKAPKLLIYAASNQGSGVPSRFSGSGSGTDFTLTISSLQPDDFATYYCQQSKEVPWTFGQGTKVEIKRTVAAPSVFIFPPSDEQLKSGTASVVCLLNNFYPREAKVQWKVDNALQSGNSQESVTEQDSKDSTYSLSSTLTLSKADYEKHKVYACEVTHQGLSSPVTKSFNRGECHHHHHH
heavy: B5 heavy
notes: as for B1
B7: CD33 BRIDGE variant B10 (Fab)
light: GHNYTTRNILPGLNITSTFHKTSGSGKEPKSSDKTHTGSDIQMTQSPSSLSASVGDRVTITCRASESVDNYGISFMNWFQQKPGKAPKLLIYAASNQGSGVPSRFSGSGSGTDFTLTISSLQPDDFATYYCQQSKEVPWTFGQGTKVEIKRTVAAPSVFIFPPSDEQLKSGTASVVCLLNNFYPREAKVQWKVDNALQSGNSQESVTEQDSKDSTYSLSSTLTLSKADYEKHKVYACEVTHQGLSSPVTKSFNRGECHHHHHH
heavy: B5 heavy
notes: as for B1
B8: CD33 BRIDGE variant B6 (Fab)
light: GHNYTTRNILPGLNITSTFHKTSGSGKGGGSEPKSSDKTHTDIQMTQSPSSLSASVGDRVTITCRASESVDNYGISFMNWFQQKPGKAPKLLIYAASNQGSGVPSRFSGSGSGTDFTLTISSLQPDDFATYYCQQSKEVPWTFGQGTKVEIKRTVAAPSVFIFPPSDEQLKSGTASVVCLLNNFYPREAKVQWKVDNALQSGNSQESVTEQDSKDSTYSLSSTLTLSKADYEKHKVYACEVTHQGLSSPVTKSFNRGECHHHHHH
heavy: B5 heavy
notes: as for B1
B9: CD33 BRIDGE variant B11 (Fab)
light: GHNYTTRNILPGLNITSTFHKTSGSGKGSEPKSSDKTHTGSDIQMTQSPSSLSASVGDRVTITCRASESVDNYGISFMNWFQQKPGKAPKLLIYAASNQGSGVPSRFSGSGSGTDFTLTISSLQPDDFATYYCQQSKEVPWTFGQGTKVEIKRTVAAPSVFIFPPSDEQLKSGTASVVCLLNNFYPREAKVQWKVDNALQSGNSQESVTEQDSKDSTYSLSSTLTLSKADYEKHKVYACEVTHQGLSSPVTKSFNRGECHHHHHH
heavy: B5 heavy
notes: as for B1
B10: CD33 BRIDGE variant B8 (Fab, V domains shown)
VH: B1 VH
VL: B1 VL
notes: as for B1
B11: CD33 BRIDGE variant B9 (Fab, V domains shown)
VH: B1 VH
VL: B1 VL
notes: as for B1
B12: CD33 BRIDGE variant B12 (Fab)
light: GHNYTTRNILPGLNITSTFHKTSGSGKGGGGSEPKSSDKTHTGSDIQMTQSPSSLSASVGDRVTITCRASESVDNYGISFMNWFQQKPGKAPKLLIYAASNQGSGVPSRFSGSGSGTDFTLTISSLQPDDFATYYCQQSKEVPWTFGQGTKVEIKRTVAAPSVFIFPPSDEQLKSGTASVVCLLNNFYPREAKVQWKVDNALQSGNSQESVTEQDSKDSTYSLSSTLTLSKADYEKHKVYACEVTHQGLSSPVTKSFNRGECHHHHHH
heavy: B5 heavy
notes: as for B1
B13: CD33 BRIDGE variant B13 (Fab, V domains shown)
VH: B1 VH
VL: B1 VL
notes: as for B1
B14: CD33 BRIDGE variant B14 (Fab, V domains shown)
VH: B1 VH
VL: B1 VL
notes: as for B1

Each binder was assayed against T1, nfP2X7 CAR 1 (assay: flow cytometry, CAR T cells, anti-His-FITC, EGFR+ MFI over background 0.4).
T1 construct: Expressed on T cells with truncated EGFR as marker gene; also called anti-nfP2X7 receptor CAR 1; nfP2X7 targeted CAR on EGFR+ T cells
Procedure: (§1) nfP2X₇ CAR T cells were incubated with different BRiDGE variants at saturating concentrations. […] The MFI intensity correlates with the number of secondary bound antibodies bound to the BRiDGEs that are only detected if they are bound to the CAR T cells. EGFR was used as a marker gene to detect the CAR expression. Thus, the EGFR+ T cell population was defined as the CAR expressing cells and the EGFR− T cell population was defined as the CAR negative subset. MFI: median fluorescence intensity. EGFR: epidermal growth factor receptor. BLItz: Bio-Layer interferometry (BLI) technology using HIS-tag identification tips. HIS-tag MFI Ratio: relative index that is calculated by the testing condition MFI divided by the control MFI, which corresponds to the MFI measured on EGFR+ T cells (defined as CAR positive cells) divided by the MFI measured on the EGFR− T cells (defined as CAR negative cells). […] The higher the MFIR, the stronger the binding.

First: B1
Second: B2
The “HisTag MFI Ratio (background 0.4)” value of the first is lower: 2.7 for the first, 2.8 for the second.

First: B3
Second: B4
The “HisTag MFI Ratio (background 0.4)” value of the first is higher: 3.6 for the first, 2.6 for the second.

Compared with B5, B6 is lower in “HisTag MFI Ratio (background 0.4)” value: 4.2 for the first, 3.5 for the second.

Going from B7 to B8, the “HisTag MFI Ratio (background 0.4)” value falls from 5 to 4.9.

Compared with B9, B10 is higher in “HisTag MFI Ratio (background 0.4)” value: 3 for the first, 3.4 for the second.

Compared with B11, B12 is higher in “HisTag MFI Ratio (background 0.4)” value: 2.9 for the first, 3.9 for the second.

First: B13
Second: B14
The “HisTag MFI Ratio (background 0.4)” value of the first is lower: 3.4 for the first, 3.6 for the second.

What follows are binders tested against T2, CD33 (UniProt P20138 18-364, limits assumed) (assay: flow cytometry, MOLM-13 cells, anti-His-FITC detection).
T2 construct: whole, on cells; also called Siglec-3; CD33 on MOLM-13 cells
T2 sequence (P20138 18-364 limits assumed): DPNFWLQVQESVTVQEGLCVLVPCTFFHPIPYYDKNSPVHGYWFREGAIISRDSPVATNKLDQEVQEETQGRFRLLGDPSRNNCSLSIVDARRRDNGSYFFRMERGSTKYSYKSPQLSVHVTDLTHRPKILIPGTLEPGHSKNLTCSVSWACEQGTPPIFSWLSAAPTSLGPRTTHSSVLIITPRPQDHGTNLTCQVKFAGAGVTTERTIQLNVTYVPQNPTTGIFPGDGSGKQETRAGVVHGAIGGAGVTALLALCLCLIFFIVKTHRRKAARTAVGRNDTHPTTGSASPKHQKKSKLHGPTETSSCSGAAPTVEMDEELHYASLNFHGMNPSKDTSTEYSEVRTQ
Procedure: (§2) MOLM-13 cells were incubated with different CD33 BRIDGE variants at saturating concentrations. […] The MFI intensity correlates with the number of secondary antibodies bound to the CD33 BRIDGE variants that are only detected if they are bound to the MOLM-13 cells. MFI: median fluorescence intensity. BLItz: Bio-Layer interferometry (BLI) technology using HIS-tag identification tips. […] The higher the MFIR, the stronger the binding.

Compared with B1, B2 is lower in “MFI HisTag FITC” value: 6.11 for the first, 5.59 for the second.

First: B3
Second: B4
The “MFI HisTag FITC” value of the first is lower: 5.52 for the first, 6.76 for the second.

Compared with B5, B6 is higher in “MFI HisTag FITC” value: 5.53 for the first, 5.86 for the second.

Going from B7 to B8, the “MFI HisTag FITC” value falls from 6.86 to 6.25.

Compared with B9, B10 is lower in “MFI HisTag FITC” value: 7.39 for the first, 6.53 for the second.

First: B11
Second: B12
The “MFI HisTag FITC” value of the first is higher: 6.33 for the first, 6.08 for the second.

Going from B13 to B14, the “MFI HisTag FITC” value falls from 6.78 to 6.68.

What follows are binders tested against T2, CD33 (assay: flow cytometry, MOLM-13 cells, anti-His-FITC detection, ratio to no bridge).
Procedure: as §2

Compared with B1, B2 is lower in “MFIR HisTag FITC” value: 9.12 for the first, 8.34 for the second.

Going from B3 to B4, the “MFIR HisTag FITC” value rises from 8.24 to 10.1.

Going from B5 to B6, the “MFIR HisTag FITC” value rises from 8.25 to 8.75.

Going from B7 to B8, the “MFIR HisTag FITC” value falls from 10.2 to 9.33.

Going from B9 to B10, the “MFIR HisTag FITC” value falls from 11 to 9.75.

Going from B11 to B12, the “MFIR HisTag FITC” value falls from 9.45 to 9.07.

Going from B13 to B14, the “MFIR HisTag FITC” value falls from 10.1 to 9.97.

These binders were tested against T1, nfP2X7 CAR 1 (assay: flow cytometry, CAR T cells, anti-His-FITC, EGFR+ over EGFR- cells).
Procedure: as §1

B1 and B2 are the same in “HisTag MFI Ratio of EGFR+/EGFR-” value: 2.5 for the first, 2.5 for the second.

First: B3
Second: B4
The “HisTag MFI Ratio of EGFR+/EGFR-” value of the first is higher: 3 for the first, 2.4 for the second.

First: B5
Second: B6
The “HisTag MFI Ratio of EGFR+/EGFR-” value of the first is higher: 3.1 for the first, 2.8 for the second.

Compared with B7, B8 is lower in “HisTag MFI Ratio of EGFR+/EGFR-” value: 3.5 for the first, 3.4 for the second.

Compared with B9, B10 is higher in “HisTag MFI Ratio of EGFR+/EGFR-” value: 2.7 for the first, 2.9 for the second.

Going from B11 to B12, the “HisTag MFI Ratio of EGFR+/EGFR-” value rises from 2.8 to 3.1.

B13 and B14 are the same in “HisTag MFI Ratio of EGFR+/EGFR-” value: 2.9 for the first, 2.9 for the second.

These binders were tested against T1, nfP2X7 CAR 1 (assay: flow cytometry, nfP2X7 CAR T cells (EGFR+), anti-His-FITC detection).
Procedure: as §1

First: B1
Second: B2
The “MFI HisTag FITC in EGFR+ Population” value of the first is lower: 1.08 for the first, 1.11 for the second.

First: B3
Second: B4
The “MFI HisTag FITC in EGFR+ Population” value of the first is higher: 1.45 for the first, 1.04 for the second.

Going from B5 to B6, the “MFI HisTag FITC in EGFR+ Population” value falls from 1.68 to 1.4.

Going from B7 to B8, the “MFI HisTag FITC in EGFR+ Population” value falls from 1.99 to 1.96.

First: B9
Second: B10
The “MFI HisTag FITC in EGFR+ Population” value of the first is lower: 1.2 for the first, 1.34 for the second.

Going from B11 to B12, the “MFI HisTag FITC in EGFR+ Population” value rises from 1.16 to 1.55.

Going from B13 to B14, the “MFI HisTag FITC in EGFR+ Population” value rises from 1.35 to 1.44.

Source: patent publication US20250281611A1 (BIOSCEPTRE AUST, published 2025)
